Target: T1, α1-antitrypsin (human, UniProt P01009 25-418)
T1 construct: alpha-1-antitrypsin (SERPINA1), human, plasma-derived, 52 kDa; The activity assays used Prolastin; also called α1AT; alpha-1 antitrypsin; source: bought: Merck (A9024) or GRIFOLS (Prolastin), purified from human plasma
Assay: SPR; TMPRSS2 amine-coupled (NHS/EDC) on an MUA-functionalised gold chip, Reichert SR7000; α1AT flowed at 0-20 µM in 10 mM HEPES, 150 mM NaCl, 0.05 % Tween-20, pH 7.5, 10 µl/min; equilibrium analysis
Conditions: both partners purified

T1 sequence (P01009 25-418): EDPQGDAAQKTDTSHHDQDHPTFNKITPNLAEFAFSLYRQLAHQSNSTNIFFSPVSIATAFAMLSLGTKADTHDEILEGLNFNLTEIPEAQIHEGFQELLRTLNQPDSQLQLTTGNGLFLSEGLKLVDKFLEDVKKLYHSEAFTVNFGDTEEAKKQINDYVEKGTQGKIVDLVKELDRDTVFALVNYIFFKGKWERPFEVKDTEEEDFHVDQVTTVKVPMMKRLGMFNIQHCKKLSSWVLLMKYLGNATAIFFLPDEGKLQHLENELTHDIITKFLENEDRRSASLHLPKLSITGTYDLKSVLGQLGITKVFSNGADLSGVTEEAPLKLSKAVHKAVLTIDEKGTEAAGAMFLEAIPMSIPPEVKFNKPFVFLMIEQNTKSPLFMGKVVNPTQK

B1: recombinant TMPRSS2 (enzyme)
chain: not shown
notes: TMPRSS2, human, recombinant protein from Creative BioMart; No catalogue number or construct limits are printed; The cell-associated activity assay used TMPRSS2 expressed from Addgene 53887 in HEK293T cells; also called recombinant human TMPRSS2; transmembrane serine protease 2; source: bought: Creative BioMart
  Kd: 941 ± 297 nM

Source: article PMC7979852, “Alpha-1 antitrypsin inhibits TMPRSS2 protease activity and SARS-CoV-2 infection” (Nature Communications, 2021)
